Values of other authors in PMC5533512.

Target: CD40 (Homo sapiens) (UniProt P25942)
Sequence of UniProt P25942 (P25942 21-193): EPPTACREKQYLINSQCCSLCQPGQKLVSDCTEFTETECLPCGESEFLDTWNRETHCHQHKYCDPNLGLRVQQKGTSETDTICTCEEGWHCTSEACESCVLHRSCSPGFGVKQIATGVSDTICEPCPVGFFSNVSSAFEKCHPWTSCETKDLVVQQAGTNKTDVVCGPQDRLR

For dacetuzumab, the Kd is listed as 1 nM.
